How the values were obtained:
[1] = tested on: ABCA1-mediated cholesterol efflux from mouse peritoneal macrophages; assay: Cholesterol efflux to apoA-I from cholesterol-loaded macrophages; conditions: 1 and 5 μM ATRA
apoCIII = conditions: transcriptional level; cited from earlier work
RARα/RXRα heterodimer [2] = target: T1, RARα/RXRα heterodimer (Homo sapiens, UniProt P10276;P19793 P10276:1-462,P19793:1-462); assay: EMSA; data not shown; conditions: tags: TNT wheat germ; label: 32P
Description: (§1) RARs and LXRα and RXRα proteins were in vitro translated by using the TNT-coupled wheat germ extract systems (Promega). Double-strand oligonucleotides corresponding to the wild-type ABCA1 DR4 element 5′-[…]-3′ and the mutated sequence 5′-[…]-3′ were used, and electrophoresis mobility shift assays (EMSAs) were done with ³²P-labeled probes as described previously (6). For competition experiments, a 30-fold molar excess of cold unlabeled competitor DNA relative to labeled DNA was used. […] The oligonucleotides 5′-[…]-3′ and 5′-[…]-3′ were, respectively, used in EMSA analysis of DR4 elements a and b of the murine SREBP-1c promoter.
(§2) To further assess the possibility of a direct interaction between RARγ and the human ABCA1 promoter, a gel shift assay by using oligonucleotides consisting of the DR4 element was carried out. […] It was also determined whether RARα and RARβ could bind the ABCA1 DR4 element.

RARβ/RXRα heterodimer [3] = target: T2, RARβ/RXRα heterodimer (Homo sapiens, UniProt P10826;P19793 P10826:1-455,P19793:1-462); assay: EMSA; data not shown; conditions: tags: TNT wheat germ; label: 32P
T2 sequence (P19793 whole entry, one chain of several): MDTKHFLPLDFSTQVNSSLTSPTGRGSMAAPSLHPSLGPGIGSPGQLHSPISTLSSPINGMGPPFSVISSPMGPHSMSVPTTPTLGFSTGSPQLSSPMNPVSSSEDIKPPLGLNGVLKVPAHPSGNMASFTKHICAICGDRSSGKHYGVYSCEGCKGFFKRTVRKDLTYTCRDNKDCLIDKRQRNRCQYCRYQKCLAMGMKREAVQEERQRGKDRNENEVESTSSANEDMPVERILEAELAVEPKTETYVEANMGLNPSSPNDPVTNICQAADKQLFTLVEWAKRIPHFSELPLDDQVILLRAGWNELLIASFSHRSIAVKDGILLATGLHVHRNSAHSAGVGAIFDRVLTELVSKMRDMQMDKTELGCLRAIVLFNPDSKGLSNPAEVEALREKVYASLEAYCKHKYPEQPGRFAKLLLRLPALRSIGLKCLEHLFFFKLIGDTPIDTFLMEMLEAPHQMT
Description: as §1, §2

RARγ/RXRα heterodimer [4] = target: T3, RARγ/RXRα heterodimer (Homo sapiens, UniProt P13631;P19793 P13631:1-454,P19793:1-462); assay: EMSA; supershift with anti-RXRα and anti-RARγ; competed by 30-fold cold wild-type DR4; conditions: tags: TNT wheat germ; pCMX-hRARγ, pCMX-hRXRα; label: 32P
T3 sequence (P19793 whole entry, one chain of several): as above
Description: as §1, §2

RARα without RXRα = target: T4, RARα without RXRα (Homo sapiens, UniProt P10276 P10276:1-462); assay: EMSA; complex only in presence of RXRα; data not shown; conditions: tags: TNT wheat germ; label: 32P
T4 sequence: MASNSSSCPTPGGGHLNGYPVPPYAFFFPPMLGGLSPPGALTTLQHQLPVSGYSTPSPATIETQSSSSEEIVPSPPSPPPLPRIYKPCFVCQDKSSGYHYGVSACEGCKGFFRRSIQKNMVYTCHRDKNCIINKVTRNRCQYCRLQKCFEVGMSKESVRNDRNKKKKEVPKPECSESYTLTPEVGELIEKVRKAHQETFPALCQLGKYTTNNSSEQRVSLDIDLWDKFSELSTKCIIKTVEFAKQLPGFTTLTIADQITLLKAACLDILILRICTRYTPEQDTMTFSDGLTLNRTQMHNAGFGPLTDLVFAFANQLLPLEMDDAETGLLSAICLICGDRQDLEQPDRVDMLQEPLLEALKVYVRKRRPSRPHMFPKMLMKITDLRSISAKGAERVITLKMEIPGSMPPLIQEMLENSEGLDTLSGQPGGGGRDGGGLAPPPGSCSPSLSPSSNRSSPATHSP
Description: as §1, §2

RARβ without RXRα = target: T5, RARβ without RXRα (Homo sapiens, UniProt P10826 P10826:1-455); assay: as above; conditions: tags: TNT wheat germ; label: 32P
T5 sequence: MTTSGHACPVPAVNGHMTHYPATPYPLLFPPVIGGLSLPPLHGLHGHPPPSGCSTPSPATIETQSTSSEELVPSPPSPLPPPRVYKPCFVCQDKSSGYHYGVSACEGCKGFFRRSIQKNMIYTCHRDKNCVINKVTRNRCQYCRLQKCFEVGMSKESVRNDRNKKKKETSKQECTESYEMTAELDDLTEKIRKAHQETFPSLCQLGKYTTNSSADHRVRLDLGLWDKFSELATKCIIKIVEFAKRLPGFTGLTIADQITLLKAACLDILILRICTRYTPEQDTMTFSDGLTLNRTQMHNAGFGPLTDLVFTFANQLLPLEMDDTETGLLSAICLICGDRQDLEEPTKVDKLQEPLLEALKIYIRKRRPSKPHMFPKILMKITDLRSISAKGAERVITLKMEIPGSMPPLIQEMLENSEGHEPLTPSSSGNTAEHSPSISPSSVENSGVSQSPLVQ
Description: as §1, §2

RARγ without RXRα = target: T6, RARγ without RXRα (Homo sapiens, UniProt P13631 P13631:1-454); assay: as above; conditions: tags: TNT wheat germ; label: 32P
T6 sequence: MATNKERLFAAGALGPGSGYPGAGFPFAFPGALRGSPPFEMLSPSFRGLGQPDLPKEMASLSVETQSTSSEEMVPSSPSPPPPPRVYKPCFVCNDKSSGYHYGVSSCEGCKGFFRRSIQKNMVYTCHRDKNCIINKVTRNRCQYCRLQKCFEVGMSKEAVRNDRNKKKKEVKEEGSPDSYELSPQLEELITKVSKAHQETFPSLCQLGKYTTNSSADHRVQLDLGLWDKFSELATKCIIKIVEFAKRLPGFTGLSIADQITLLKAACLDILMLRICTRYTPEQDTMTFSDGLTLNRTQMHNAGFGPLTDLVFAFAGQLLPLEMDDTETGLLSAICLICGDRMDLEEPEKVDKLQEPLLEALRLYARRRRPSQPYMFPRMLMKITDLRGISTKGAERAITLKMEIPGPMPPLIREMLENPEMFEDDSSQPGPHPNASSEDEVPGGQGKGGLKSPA
Description: as §1, §2

RARγ/RXRα heterodimer [5] = target: T3, RARγ/RXRα heterodimer; assay: EMSA; neither bound nor competed with ABCA1 DR4; conditions: tags: TNT wheat germ; pCMX-hRARγ, pCMX-hRXRα; label: 32P
RARα/RXRα heterodimer [6] = target: T1, RARα/RXRα heterodimer; assay: EMSA; not shown; conditions: tags: TNT wheat germ; label: 32P
Description: as §1

RARβ/RXRα heterodimer [7] = target: T2, RARβ/RXRα heterodimer; assay: EMSA; not shown; conditions: tags: TNT wheat germ; label: 32P
Description: as §1

RARγ/RXRα heterodimer [8] = target: T3, RARγ/RXRα heterodimer; assay: EMSA; neither bound nor competed with ABCA1 DR4; conditions: tags: TNT wheat germ; pCMX-hRARγ, pCMX-hRXRα; label: 32P; remark: listed apart in the source
Description: as §1

T1 sequence (P19793 whole entry, one chain of several): as the sequence (P19793 whole entry, one chain of several) above

With `O=S(=O)(c1ccccc1)N(CC(F)(F)F)c1ccc(C(O)(C(F)(F)F)C(F)(F)F)cc1` [TO-901317] the “increase in cholesterol efflux to apoA-I, ATRA compared with TO-901317” value [1] was “comparable increase in cholesterol efflux to apoA-I”.

For `CC1=C(/C=C/C(C)=C/C=C/C(C)=C\C(=O)O)C(C)(C)CCC1` [13-cRA, isotretinoin], the “hepatic apoCIII expression” value (apoCIII) is given as “increases hepatic apoCIII expression”.

B1: ABCA1 DR4 element (dsDNA)
DNA 1: ACTGGGCTTTGACCGATAGTAACCTCTGCGCTCG
DNA 2: CGAGCGCAGAGGTTACTATCGGTCAAAGCCCAGT
B1: binds (RARα/RXRα heterodimer [2]); binds (RARβ/RXRα heterodimer [3]); binds (RARγ/RXRα heterodimer [4]). B1: no binding (RARα without RXRα); no binding (RARβ without RXRα); no binding (RARγ without RXRα).

B2: SREBP-1c DR4 element b (dsDNA)
DNA 1: ACTGGGACGCCCGCTAGTAACCCCGGC
DNA 2: GCCGGGGTTACTAGCGGGCGTCCCAGT
B2: no binding (RARγ/RXRα heterodimer [5]); no binding (RARα/RXRα heterodimer [6]); no binding (RARβ/RXRα heterodimer [7]).

B3: SREBP-1c DR4 element a (dsDNA)
DNA 1: ACTGCAGTGACCGCCAGTAACCCCAGC
DNA 2: GCTGGGGTTACTGGCGGTCACTGCAGT
B3: no binding (RARγ/RXRα heterodimer [8]); no binding (RARα/RXRα heterodimer [6]); no binding (RARβ/RXRα heterodimer [7]).

Reference: patent publication US20060009520A1, “Retinoid-based methods for altering macrophage cholesterol” (priority 2004, published 2006)
